Key:
[1] = molecular target: HLA-A*02:01_… (HLA-PEPTIDE target G8), soluble (human, enzymatically biotinylated (BirA) for screening and BLI); experiment: scFv PPE ELISA
[2] = molecular target: HLA-A*01:01_… (HLA-PEPTIDE target G10), soluble (human, enzymatically biotinylated (BirA)); experiment: scFv PPE ELISA

Binder	fold selective binding, target pHLA vs minipool of negative control pHLAs [1]	fold selective binding, target pHLA vs minipool of negative control pHLAs [2]
scFv G8-P1A03 (scFv, V domains shown, scFv) VH: QVQLVQSGAEVKKPGASVKVSCKASGGTFSRSAITWVRQAPGQGLEWMGWINPNSGATNYAQKFQGRVTMTRDTSTSTVYMELSSLRSEDTAVYYCARDDYGDYVAYFQHWGQGTLVTVSS VL: DIQMTQSPSSLSASVGDRVTITCRASQSITSYLNWYQQKPGKAPKLLIYDASNLETGVPSRFSGSGSGTDFTLTISSLQPEDFATYYCQQNYNSVTFGQGTKLEIK	≥ 3 fold	–
scFv R3G10-P4D04 (scFv, V domains shown, scFv) VH: QVQLVQSGAEVKKPGASVKVSCKASGYTFTGYYVHWVRQAPGQGLEWMGIIAPSDGSTNYAQKFQGRVTMTRDTSTSTVYMELSSLRSEDTAVYYCARDPGGYMDVWGKGTTVTVSS VL: DIQMTQSPSSLSASVGDRVTITCRASQSISSYLAWYQQKPGKAPKLLIYDASKLETGVPSRFSGSGSGTDFTLTISSLQPEDFATYYCQQSYGVPTFGQGTKLEIK	–	≥ 3 fold
scFv R3G10-P1E12 (scFv, V domains shown, scFv) VH: QVQLVQSGAEVKKPGASVKVSCKASGYIFTGYYMHWVRQAPGQGLEWMGMIGPSDGSTSYAQKFQGRVTMTRDTSTSTVYMELSSLRSEDTAVYYCAREDDSMDVWGKGTTVTVSS VL: not shown	–	≥ 3 fold
scFv G8-P1A06 (scFv, V domains shown, scFv) VH: QVQLVQSGAEVKKPGASVKVSCKASGYTFTNYYMHWVRQAPGQGLEWMGWMNPIGGGTGYAQKFQGRVTMTRDTSTSTVYMELSSLRSEDTAVYYCARVYDFWSVLSGFDIWGQGTLVTVSS VL: DIQMTQSPSSLSASVGDRVTITCRASQAISNSLAWYQQKPGKAPKLLIYAASTLQSGVPSRFSGSGSGTDFTLTISSLQPEDFATYYCGQSYSTPPTFGQGTKLEIK	≥ 3 fold	–
scFv R3G10-P4A02 (scFv, V domains shown, scFv) VH: QVQLVQSGAEVKKPGASVKVSCKASGYTLSYYYMHWVRQAPGQGLEWMGMIGPSDGSTSYAQRFQGRVTMTRDTSTGTVYMELSSLRSEDTAVYYCARDTGDHFDYWGQGTLVTVSS VL: not shown	–	≥ 3 fold
scFv R3G10-P4G06 (scFv, V domains shown, scFv; printed VH and VL equal those of R3G10-P4A02) VH: QVQLVQSGAEVKKPGASVKVSCKASGYTLSYYYMHWVRQAPGQGLEWMGMIGPSDGSTSYAQRFQGRVTMTRDTSTGTVYMELSSLRSEDTAVYYCARDTGDHFDYWGQGTLVTVSS VL: not shown	–	≥ 3 fold
scFv R3G10-P2C04 (scFv, V domains shown, scFv) VH: QVQLVQSGAEVKKPGASVKVSCKASGGTFSNSIINWVRQAPGQGLEWMGWMNPNSGNTNYAQKFQGRVTMTRDTSTSTVYMELSSLRSEDTAVYYCAREQWPSYWYFDLWGRGTLVTVSS VL: not shown	–	≥ 3 fold
scFv R3G10-P1B07 (scFv, V domains shown, scFv) VH: QVQLVQSGAEVKKPGASVKVSCKASGYTFTSYYMHWVRQAPGQGLEWMGIIHPGGGTTSYAQKFQGRVTMTRDTSTSTVYMELSSLRSEDTAVYYCARDKVYGDGFDPWGQGTLVTVSS VL: DIQMTQSPSSLSASVGDRVTITCRASQSISRWLAWYQQKPGKAPKLLIFDASRLQSGVPSRFSGSGSGTDFTLTISSLQPEDFATYYCQQAEAFPYTFGQGTKVEIK	–	≥ 3 fold
scFv R3G10-P4D10 (scFv, V domains shown, scFv) VH: QVQLVQSGAEVKKPGASVKVSCKASGYTFTGYYLHWVRQAPGQGLEWMGMIGPSDGSTSYAQKFQGRVTMTRDTSTSTVYMELSSLRSEDTAVYYCARDGDAFDIWGQGTMVTVSS VL: DIQMTQSPSSLSASVGDRVTITCRASQGISSWLAWYQQKPGKAPKLLIYDASNLETGVPSRFSGSGSGTDFTLTISSLQPEDFATYYCQQSYSTPLTFGGGTKVEIK	–	≥ 3 fold
scFv G8-P1B03 (scFv, V domains shown, scFv) VH: EVQLLESGGGLVQPGGSLRLSCAASGFTFSDYYMSWVRQAPGKGLEWVSGINWNGGSTGYADSVKGRFTISRDNSKNTLYLQMNSLRAEDTAVYYCARVEQGYDIYYYYYMDVWGKGTTVTVSS VL: DIQMTQSPSSLSASVGDRVTITCRASQSISSYLNWYQQKPGKAPKLLIYKASSLESGVPSRFSGSGSGTDFTLTISSLQPEDFATYYCQQSYSAPYTFGPGTKVDIK	≥ 3 fold	–
scFv R3G10-P4C05 (scFv, V domains shown, scFv) VH: QVQLVQSGAEVKKPGASVKVSCKASGYTFTGYYMHWVRQAPGQGLEWMGIIGPSDGSTTYAQKFQGRVTMTRDTSTSTVYMELSSLRSEDTAVYYCARAENGMDVWGQGTTVTVSS VL: DIQMTQSPSSLSASVGDRVTITCRASQRISSYLNWYQQKPGKAPKLLIYSASTLQSGVPSRFSGSGSGTDFTLTISSLQPEDFATYYCQQSYSTPFTFGPGTKVDIK	–	≥ 3 fold
scFv G8-P1C11 (scFv, V domains shown, scFv) VH: QVQLVQSGAEVKKPGASVKVSCKASGGTLSSYPINWVRQAPGQGLEWMGWISTYSGHADYAQKLQGRVTMTRDTSTSTVYMELSSLRSEDTAVYYCARSYDYGDYLNFDYWGQGTLVTVSS VL: DIQMTQSPSSLSASVGDRVTITCQASQDISNYLNWYQQKPGKAPKLLIYAASSLQSGVPSRFSGSGSGTDFTLTISSLQPEDFATYYCQQSYSIPPTFGGGTKVDIK	≥ 3 fold	–
scFv R3G10-P1A07 (scFv, V domains shown, scFv) VH: EVQLLESGGGLVKPGGSLRLSCAASGFTFSSYWMSWVRQAPGKGLEWVSGISARSGRTYYADSVKGRFTISRDDSKNTLYLQMNSLKTEDTAVYYCARDQDTIFGVVITWFDPWGQGTLVTVSS VL: DIQMTQSPSSLSASVGDRVTITCRASQGISNYLAWYQQKPGKAPKLLIYAASSLQGGVPSRFSGSGSGTDFTLTISSLQPEDFATYYCQQYFTTPYTFGQGTKLEIK	–	≥ 3 fold
scFv R3G10-P1H08 (scFv, V domains shown, scFv) VH: QVQLVQSGAEVKKPGASVKVSCKASGVTFSTSAISWVRQAPGQGLEWMGWISPYNGNTDYAQMLQGRVTMTRDTSTSTVYMELSSLRSEDTAVYYCARDAHQYYDFWSGYYSGTYYYGMDVWGQGTTVTVSS VL: DIQMTQSPSSLSASVGDRVTITCRASQGISNYLAWYQQKPGKAPKLLIYSASNLQSGVPSRFSGSGSGTDFTLTISSLQPEDFATYYCQQAYSFPWTFGQGTKVEIK	–	≥ 3 fold
scFv R3G10-P1H01 (scFv, V domains shown, scFv) VH: QVQLVQSGAEVKKPGASVKVSCKASGYTFTGYYMHWVRQAPGQGLEWMGMIGPSDGSTSYAQKFQGRVTMTRDTSTSTVYMELSSLRSEDTAVYYCARGVGNLDYWGQGTLVTVSS VL: DIQMTQSPSSLSASVGDRVTITCRASQSISNYLNWYQQKPGKAPKLLIYAASSLQSGVPSRFSGSGSGTDFTLTISSLQPEDFATYYCHQTYSTPLTFGQGTKVEIK	–	≥ 3 fold

Second part, the binder after the results:

fold selective binding, target pHLA vs minipool of negative control pHLAs [1]	fold selective binding, target pHLA vs minipool of negative control pHLAs [2]	Binder
–	≥ 3 fold	scFv R3G10-P4E12 (scFv, V domains shown, scFv) VH: QVQLVQSGAEVKKPGASVKVSCKASGYTFTGYYMHWVRQAPGQGLEWMGMIGPSDGSTSYAQRFQGRVTMTRDTSTSTVYMELSSLRSEDTAVYYCAREEDGMDVWGQGTTVTVSS VL: DIQMTQSPSSLSASVGDRVTITCRASQGISTYLAWYQQKPGKAPKLLIYDASSLQSGVPSRFSGSGSGTDFTLTISSLQPEDFATYYCQQYYSYPWTFGQGTRLEIK
–	≥ 3 fold	scFv R3G10-P5C08 (scFv, V domains shown, scFv) VH: QVQLVQSGAEVKKPGASVKVSCKASGYNFTGYYMHWVRQAPGQGLEWMGIIAPSDGSTNYAQKFQGRVTMTRDTSTSTVYMELSSLRSEDTAVYYCARETGDDAFDIWGQGTMVTVSS VL: not shown
–	≥ 3 fold	scFv R3G10-P1F06 (scFv, V domains shown, scFv) VH: QVQLVQSGAEVKKPGASVKVSCKASGYTFIGYYMHWVRQAPGQGLEWMGMIGPSDGSTSYAQKFQGRVTMTRDTSTSTVYMELSSLRSEDTAVYYCARDSSGLDPWGQGTLVTVSS VL: DIQMTQSPSSLSASVGDRVTITCRASQSISNYLNWYQQKPGKAPKLLIYKASSLESGVPSRFSGSGSGTDFTLTISSLQPEDFATYYCQQSYIIPYTFGQGTKLEIK
–	≥ 3 fold	scFv R3G10-P5A08 (scFv, V domains shown, scFv) VH: QVQLVQSGAEVKKPGSSVKVSCKASGGTFNNFAISWVRQAPGQGLEWMGGIIPIFDATNYAQKFQGRVTFTADESTSTAYMELSSLRSEDTAVYYCARGEYSSGFFFVGWFDLWGRGTQVTVSS VL: not shown
–	≥ 3 fold	scFv R3G10-P3E04 (scFv, V domains shown, scFv) VH: QVQLVQSGAEVKKPGASVKVSCKASGNTFIGYYVHWVRQAPGQGLEWVGIINPNGGSISYAQKFQGRVTMTRDTSTSTVYMELSSLRSEDTAVYYCARGSGDPNYYYYYGLDVWGQGTTVTVSS VL: DIQMTQSPSSLSASVGDRVTITCQASQDISNYLNWYQQKPGKAPKLLIYAASNLQSGVPSRFSGSGSGTDFTLTISSLQPEDFATYYCQQANSLPYTFGQGTKVEIK
–	≥ 3 fold	scFv R3G10-P2G11 (scFv, V domains shown, scFv) VH: QVQLVQSGAEVKKPGASVKVSCKASGGTFSTHDINWVRQAPGQGLEWMGVINPSGGSAIYAQKFQGRVTMTRDTSTSTVYMELSSLRSEDTAVYYCARDRGYSYGYFDYWGQGTLVTVSS VL: DIQMTQSPSSLSASVGDRVTITCRASQDISRYLAWYQQKPGKAPKLLIYDASNLETGVPSRFSGSGSGTDFTLTISSLQPEDFATYYCQQANSFPRTFGQGTKVEIK
–	≥ 3 fold	scFv R3G10-P4E07 (scFv, V domains shown, scFv) VH: QVQLVQSGAEVKKPGSSVKVSCKASGYTFTGYYMHWVRQAPGQGLEWMGRISPSDGSTTYAPKFQGRVTITADESTSTAYMELSSLRSEDTAVYYCARDMGDAFDIWGQGTTVTVSS VL: not shown
≥ 3 fold	–	scFv G8-P1A04 (scFv, V domains shown, scFv) VH: QVQLVQSGAEVKKPGASVKVSCKASGYPFIGQYLHWVRQAPGQGLEWMGIINPSGDSATYAQKFQGRVTMTRDTSTSTVYMELSSLRSEDTAVYYCARDLSYYYGMDVWGQGTTVTVSS VL: DIQMTQSPSSLSASVGDRVTITCWASQGISSYLAWYQQKPGKAPKLLIYAASSLQSGVPSRFSGSGSGTDFTLTISSLQPEDFATYYCQQSYNTPWTFGPGTKVDIK

Source: US20210061914A1 (published 2021)
